Test in all cases: cleavage_in_vitro
Data set [1] deals with T1, SalI-HF R107A (Streptomyces albus G) (UniProt Q53608).
T1 sequence: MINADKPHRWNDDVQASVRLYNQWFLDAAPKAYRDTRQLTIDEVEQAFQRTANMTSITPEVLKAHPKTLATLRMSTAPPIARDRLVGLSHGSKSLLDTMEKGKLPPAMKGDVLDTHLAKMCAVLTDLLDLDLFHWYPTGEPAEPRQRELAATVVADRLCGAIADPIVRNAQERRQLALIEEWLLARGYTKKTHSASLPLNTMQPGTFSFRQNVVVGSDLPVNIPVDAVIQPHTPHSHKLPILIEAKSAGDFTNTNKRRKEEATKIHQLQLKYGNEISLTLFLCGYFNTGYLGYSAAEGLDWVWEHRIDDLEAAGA
The conditions noted are these: NEB4, 37 C, Mg2+; FI NEB1-3: >=8000, >=64000, >=4000.

Data set [2] concerns the target T2, SalI (Streptomyces albus G) (UniProt Q53608).
T2 sequence: T1 sequence with A107R
The following applies: NEB4, 37 C, Mg2+; FI NEB1-3: 8, 1, 32.

Data set [3] concerns the target T3, PvuII (Proteus vulgaris) (UniProt P23657).
T3 sequence: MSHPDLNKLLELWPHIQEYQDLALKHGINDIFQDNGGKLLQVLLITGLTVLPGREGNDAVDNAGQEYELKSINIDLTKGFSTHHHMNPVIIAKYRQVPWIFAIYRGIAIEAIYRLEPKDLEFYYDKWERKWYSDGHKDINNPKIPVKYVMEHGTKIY
The following applies: NEB4, 37 C, Mg2+; FI NEB1-3: 250, 16, 8.

Data set [4] deals with T4, PvuII-HF T46G (Proteus vulgaris) (UniProt P23657).
T4 sequence: T3 sequence with T46G
The conditions noted are these: NEB4, 37 C, Mg2+; FI NEB1-3: >=250, >=2000, >=250.

The subject of data set [5] is T5, BspQI-HF K279P/R388F (Bacillus sphaericus).
T5 sequence: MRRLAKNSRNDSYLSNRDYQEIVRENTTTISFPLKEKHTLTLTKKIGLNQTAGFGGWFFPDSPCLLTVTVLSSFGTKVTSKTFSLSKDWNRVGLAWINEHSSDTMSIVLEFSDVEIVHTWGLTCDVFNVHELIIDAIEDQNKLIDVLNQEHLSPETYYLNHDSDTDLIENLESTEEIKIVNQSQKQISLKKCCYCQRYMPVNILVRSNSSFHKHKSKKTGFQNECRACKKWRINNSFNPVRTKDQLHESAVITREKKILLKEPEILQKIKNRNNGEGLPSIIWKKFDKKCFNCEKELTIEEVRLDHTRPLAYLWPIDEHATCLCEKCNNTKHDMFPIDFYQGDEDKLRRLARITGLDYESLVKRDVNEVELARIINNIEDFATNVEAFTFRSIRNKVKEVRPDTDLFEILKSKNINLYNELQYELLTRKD
The following applies: NEB4, 50 C, Mg2+; FI NEB1-3: >=1000, >=1000, >=64.

For data set [6], the system named is T6, AvrII (Anabaena variabilis).
T6 sequence: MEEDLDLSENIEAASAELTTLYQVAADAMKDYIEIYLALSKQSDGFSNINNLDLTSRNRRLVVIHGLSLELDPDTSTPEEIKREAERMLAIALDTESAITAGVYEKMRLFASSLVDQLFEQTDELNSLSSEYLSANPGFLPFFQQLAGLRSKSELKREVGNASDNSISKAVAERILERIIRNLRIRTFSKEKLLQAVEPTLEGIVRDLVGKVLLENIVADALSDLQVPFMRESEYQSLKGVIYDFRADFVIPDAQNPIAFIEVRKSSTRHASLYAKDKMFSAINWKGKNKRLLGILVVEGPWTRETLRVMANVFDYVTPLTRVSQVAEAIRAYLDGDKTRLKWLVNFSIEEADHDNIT
The conditions noted are these: NEB4, 37 C, Mg2+; FI NEB1-3: 64, 8, 32.

For data set [7], the system named is T7, AvrII-HF Y104F (Anabaena variabilis).
T7 sequence: T6 sequence with Y104F
The following applies: NEB4, 37 C, Mg2+; FI NEB1-3: 500, >=500, >=16.

Where a chain is given by its changes, count along the chain named.

HindIII-digested lambda DNA: the values for the activity (fidelity index) in data set [1] and in data set [2] were > 32000 and 1, respectively.

For the substance pBR322, the activity (fidelity index) worked out at 0.25 in data set [3] and 500 in data set [4].

With pUC19, in data set [5], the activity (fidelity index) is > 4000.

In the case of T7 DNA, the activity (fidelity index) is 32 in data set [6] and > 1000 in data set [7].

Values taken from patent US20130115678.
